{
  "source": "patent US20150368661A1",
  "target": "recombinant hemagglutinin (HA) (A/New Caledonia/20/99; Protein Sciences) (influenza A virus A/New Caledonia/20/99 (H1N1))",
  "data": [
    {"substance": "plant-produced anti-influenza bnMAb CR6261 IgG1 (expressed in N. benthamiana) (antibody)", "values": [
      {"measurement": "Kd", "result": 0.055, "unit": "nM"}
    ]}
  ]
}
